Source: the Human Domainome abundance scans (Beltran et al. 2025)
± gives the uncertainty stated by the source.

B1: CD2-associated protein, residues 109 to 169; numbered along this chain, Q9Y5K6 (parent)
chain: KKRQCKVLFEYIPQNEDELELKVGDIIDINEEVEEGWWSGTLNNKLGLFPSNFVKELEVTD

Variants of: B1
Assay: abundance fitness (aPCA) (normalised: wild type 0, dead -1); higher = more abundant; growth selection in yeast, the domain comes from the species named
Details: Homo sapiens

Variant	abundance fitness
KKRQCKVLFEYIPQNEQELELKVGDIIDINEEVEEGWWSGTLNNKLGLFPSNFVKELEVTD [D17Q]	-0.313 ± 0.36
KKRQCKVLFEYIPQNEDSLELKVGDIIDINEEVEEGWWSGTLNNKLGLFPSNFVKELEVTD [E18S]	-0.808 ± 0.2
KKRQCKVLFEYIPQNEDELELKVGDIIDQNEEVEEGWWSGTLNNKLGLFPSNFVKELEVTD [I29Q]	-0.823 ± 0.27
KKRQCKVLFEYIPQNEDERELKVGDIIDINEEVEEGWWSGTLNNKLGLFPSNFVKELEVTD [L19R]	-0.68 ± 0.17
KKRQCKVLFEYIPQNEDELELKVGDIIDINEEVEEGWWSGTLNNKLGLFPSNFVKELEYTD [V59Y]	0.036 ± 0.19
KKRQCKVLFEYIPQNEDELELKVGDIIDINEEVEEGWWSGTLNNKLGFFPSNFVKELEVTD [L48F]	-0.19 ± 0.1
KKRQCKVLFEYIPQNEDELELKVGDIIDINEEVEEGWWSGTLNNKLGKFPSNFVKELEVTD [L48K]	0.197 ± 0.073
KKRQCKVLFEYIPQNEDELELKVGDIIDINEEVEEGWWSGTLNNKLGTFPSNFVKELEVTD [L48T]	-0.021 ± 0.084
KKRQCKVLFEYIPQNMDELELKVGDIIDINEEVEEGWWSGTLNNKLGLFPSNFVKELEVTD [E16M]	0.147 ± 0.24
KKRQCKVLFEYIPQNEDELELKVEDIIDINEEVEEGWWSGTLNNKLGLFPSNFVKELEVTD [G24E]	-0.227 ± 0.23
KKRQCKVLFEYIPQNEDELELKVDDIIDINEEVEEGWWSGTLNNKLGLFPSNFVKELEVTD [G24D]	-0.252 ± 0.25
KKRQCKVLFEYIPQNEDELELKVGDIIDINEEVLEGWWSGTLNNKLGLFPSNFVKELEVTD [E34L]	-0.611 ± 0.28
KKRQCKVLFEYIPQNEDELELKVGDIIDINEEVTEGWWSGTLNNKLGLFPSNFVKELEVTD [E34T]	0.008 ± 0.11
KKRQCKVLFEYIPQNEDELELKVGDIIDINEEVFEGWWSGTLNNKLGLFPSNFVKELEVTD [E34F]	-0.393 ± 0.3
KKRQCKVLFEYIPQNEDELELKVGDIIDINREVEEGWWSGTLNNKLGLFPSNFVKELEVTD [E31R]	0.039 ± 0.099
KKRQCKVLFEYIPQNEDELELKVGDIIDINWEVEEGWWSGTLNNKLGLFPSNFVKELEVTD [E31W]	-0.755 ± 0.2
KKRQCKVLFEYIPQNEDELELKVGDIIDINQEVEEGWWSGTLNNKLGLFPSNFVKELEVTD [E31Q]	-0.23 ± 0.15
KKRQCKVLFEYIPQNEDELELKVGDIIDINEEVEEGWWSGQLNNKLGLFPSNFVKELEVTD [T41Q]	-0.062 ± 0.13
KKRQCKVLFEYIPQNEDELELKVGDIIDINEEVEEGWWSGWLNNKLGLFPSNFVKELEVTD [T41W]	0.016 ± 0.17
KKRQCKVLFEYIPQNEDELELKVGDIIDINEEVEEGWVSGTLNNKLGLFPSNFVKELEVTD [W38V]	-0.46 ± 0.098
KKRQCKVLFEYIPQNEDELELKVGDIIDINEEVEEGLWSGTLNNKLGLFPSNFVKELEVTD [W37L]	-0.344 ± 0.12
KKRQCKVLFEYIPQNEDELELKVGDIIDINEEVEEGPWSGTLNNKLGLFPSNFVKELEVTD [W37P]	-0.541 ± 0.2

Variant	abundance fitness
KKRQCIVLFEYIPQNEDELELKVGDIIDINEEVEEGWWSGTLNNKLGLFPSNFVKELEVTD [K6I]	0.309 ± 0.054
KKRQCVVLFEYIPQNEDELELKVGDIIDINEEVEEGWWSGTLNNKLGLFPSNFVKELEVTD [K6V]	0.278 ± 0.041
KKRQCYVLFEYIPQNEDELELKVGDIIDINEEVEEGWWSGTLNNKLGLFPSNFVKELEVTD [K6Y]	0.219 ± 0.055
KKRQCKVLFEYIPQNEDELELKVGDIIDINEEVEEGWWSGTLNNKLGLFPSNFVKEREVTD [L57R]	-0.64 ± 0.15
KKRQCKVLFEYIPQNEDELELKVGDIIDINEEVEEGWWSGTLNNKLGLFPSNFVKETEVTD [L57T]	-0.269 ± 0.13
KKRQCKVLFEYIPQNEDELELKVGDIIDINEEREEGWWSGTLNNKLGLFPSNFVKELEVTD [V33R]	0.108 ± 0.17
KKRQCKVLFEYIPQNEDELELKVGDIIDINEEYEEGWWSGTLNNKLGLFPSNFVKELEVTD [V33Y]	-0.349 ± 0.4
KKRQCKVLFEYIPQNEDELELKVGDIIDINEEKEEGWWSGTLNNKLGLFPSNFVKELEVTD [V33K]	-0.262 ± 0.15
KKRQCKVLFEYIPQNEDELELKVGDIIDINEESEEGWWSGTLNNKLGLFPSNFVKELEVTD [V33S]	-0.186 ± 0.16
KKRQCKVLFEGIPQNEDELELKVGDIIDINEEVEEGWWSGTLNNKLGLFPSNFVKELEVTD [Y11G]	-0.855 ± 0.14
KKRQCKVLFEDIPQNEDELELKVGDIIDINEEVEEGWWSGTLNNKLGLFPSNFVKELEVTD [Y11D]	-0.446 ± 0.36
KKRQCKVLFEEIPQNEDELELKVGDIIDINEEVEEGWWSGTLNNKLGLFPSNFVKELEVTD [Y11E]	-0.73 ± 0.21
KKRQCKVLFEYIPQNEDELELKVGDIIDINEEVEEGWWSGTLNRKLGLFPSNFVKELEVTD [N44R]	-0.273 ± 0.16
KKRQCKVLFEYIPQNEDELELKVGDIIDINEEVEEGWWSGTLNMKLGLFPSNFVKELEVTD [N44M]	-0.318 ± 0.16
KKRQCKVLFEYIPQNEDELELKVGDIIDINEEVEEGWWSGTLNQKLGLFPSNFVKELEVTD [N44Q]	-0.183 ± 0.24
KKRQCKVLFEYIPQNEDELELKVGDIIDINEEVEEGWWSGTTNNKLGLFPSNFVKELEVTD [L42T]	-0.131 ± 0.13
KKRQCKVLFEYIPQNEDELELKVGDIIDINEEVEEGWWSGTKNNKLGLFPSNFVKELEVTD [L42K]	-0.317 ± 0.12
KKRQCKVRFEYIPQNEDELELKVGDIIDINEEVEEGWWSGTLNNKLGLFPSNFVKELEVTD [L8R]	-0.345 ± 0.17
KKRQCKVLFEYIPQNEDELELKVGDIIDINEEVEEGWWSSTLNNKLGLFPSNFVKELEVTD [G40S]	-0.92 ± 0.24
KKRQCKVLFEYIPQNEDELELKVGDIIDINEEVEEGWWSTTLNNKLGLFPSNFVKELEVTD [G40T]	-1.02 ± 0.5
KKRQCKVLFEYIPQNEDELELKVGDIIDINEEVEEGWWSVTLNNKLGLFPSNFVKELEVTD [G40V]	-0.306 ± 0.14
KKRQCKVLCEYIPQNEDELELKVGDIIDINEEVEEGWWSGTLNNKLGLFPSNFVKELEVTD [F9C]	-0.303 ± 0.22
